Here are results for one molecule from article PMC10027511 (2023).

Experiment [1] addresses T1, Sos site 2 peptide site 2 peptide (Drosophila melanogaster, UniProt P26675).
T1 chain: GELSPPPIPPRL
The experiment can be described thus: 19F NMR lineshape analysis, 45 °C.

The target of experiment [2] is T1, Sos site 2 peptide site 2 peptide. The experiment can be described thus: 19F NMR lineshape analysis, 4.2 °C.
Experiment [3] has the same target. The experiment can be described thus: 19F NMR lineshape analysis, 25 °C.
The target is the same in experiment [4]. As to the kind of experiment: 19F NMR lineshape analysis, 15 °C.
The target is the same in experiment [5]. As to the kind of experiment: 19F NMR lineshape analysis, 35 °C.

B1: Drk N-terminal SH3 domain N-terminal SH3 (protein)
chain: MEAIAKHDFSATADDELSFRKGQILKILNMEDDSNWYRAELDGKEGLIPSNYIEMKNH
By Kd is commonly meant the concentration at which binding is half-saturated. Low values mean tighter binding, high ones weaker binding. In the case of B1, the dissociation constant Kd in experiment [1] is 110 µM; in experiment [2], 9 µM; in experiment [3], 33 µM; in experiment [4], 17 µM; in experiment [5] it was 59 µM.
